Results: the nanobody polyreactivity screen of Harvey et al. (2022)

test: yeast display, Sf9 membrane polyspecificity reagent, FACS + sequencing; frameworks hold sequencing errors
Method in brief: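 A nanobody's polyreactivity label depends on the gate it was sorted from. Yeast display cells were stained with 10% biotinylated, detergent-solubilized Sf9 membrane reagent for 1 hour at 4 °C, enriched on streptavidin microbeads and sorted by FACS. The low and high (top ~1%) gates were set on anti-HA fluorescence for expression and streptavidin fluorescence for reagent binding.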

Sequence | polyreactivity (PSR sort gate)
QVQLVESVGGLVQAGGSLRLSCSASGRTFSYYTMGWYRQAPGKERELVADINTSVGSTDYADSVKGRFTISRDTAKNTVYLQMNSLKPEDTAVYYCQLIRRGHDYWGQGTQVTVSS | high polyreactivity
QVQLVESVGGLVQAGGSLRLSCSASGSIFDYYAMGWYRQAPGKQRELVAAITSGGSTYYADSVKGRFTISRDNAKNTVYLQMNSLNPEDTAVYYCNATYYYWLSYDYWGQGTQVSVSS | low polyreactivity
QVQLVESVGGLVQAGGSLRLSCSASGSIFWYNAMGWYRQAPGKERELVAAISRGGSTKYADSVKGRFTISRDNAKNTVYLQMNSLKPEDTAVYYCAARYYRSSQGWTYDYWGKGTQVTVSS | low polyreactivity
QVQLVESVGGLVQAGGSLRLSGAASGRTFSSYALGWYRQAPGKVRELVAGIRLSTGSTYYADSVKGRFTISRDNAKNTVYLQMNSLQPEDTAVYYCNARGWAYSGAKSYYWGQGTQVTLSS | high polyreactivity
QVQLVESVGGLVQAGGSLRLSSAASGLIFNEYVMGWYRQAPGKERELVAGISRIGGSTYYADSVKGRFTISRDNAKNTVYLQMKSLKQEDTAVYYCARPNLLSGDYWGQGTQVTVSS | high polyreactivity
QVQLVESVGGLVQAGGSLRLTCAASGIIFAWYVMGWYRQAPGKERELVAAITQSGGSTFYADSVKGRFTISRDNAKNTVYLQMNSLKPEDTAVYYCNTEDFVNVPEMDSWGQGTQVTVSS | low polyreactivity
QVQLVESVGGLVQAGGSLRLTCAASGRILGYYAMGWYRQAPWKERELVAAISRAGSTNYADSVKGRFTISRDNAKNTVNLQMNSLKPEHTAVYYCAARQYRRGYNYWGQGTQVTVSS | high polyreactivity
QVQLVESVGGLVQAGGTHRLSCSASGSTFFYYAMGWYRQAPGKERELVAAISSSGGRTYYADSVKGRFTISRDTAKNTVYLQMNSLKPEDTAVYYCAARDYRQSRYEYWGQGTEVTVSS | high polyreactivity
QVQLVESVGGLVQAGVSLRLRCAASGFIFWYYAMGWYRQATGKDRELVASISARDGSTYYADSVKGRFTISRYNAKNTVYLQMNSLKPEDTAVYYCNAVQRYPKYRMDYCGQGTQVTVSS | low polyreactivity
QVQLVESVRGLDQAGGSLRLSCAASGSIFDSNAMGSYRQATGKERELVAAITGSGTSTYYADSVKGRFTISRDNAKNTVYLQMNILKPEDTAVYYCARDSLQVFYTYGSDDYWGQGTQVTVSS | low polyreactivity
QVQLVESVVGLVQAGGILRLSCSASGSTLPWYAMGWYRQAPGKERELVAAISYRGGSTYYADSVKGRFTISRDNAKNTVYLQLNSLKPEDTAVYYCAARFYFQPLWYKGYYWGQGTQVTVSS | high polyreactivity
QVQLVESVVGLVQAGGSLRLSCAASGGTFSFNAIGWYRQAPGKETELVAAITQTGDGTYYADSVKGRFTISRDNAKNSVYLQMNIMKPEDTAVYYCNTDSIPFVPWFRFDYWGQGTQVTVSS | low polyreactivity
QVQLVESVVGLVQAGGSLRLSCAASGRTFRRYAMGWYRQAPGKERELVAAISRSGGSTYADSVKGRFTISRDNAKNTVYLQMNSLKPEDTAVYYCAAVTYSGSRFDYWGQGTQVTVSS | high polyreactivity
QVQLVESVVGLVQAGGSLRLSCAASVRTFVEYSMGWYRQAPGQERELVAAISSGGGSTYYADSVKGRFTISRDNAKNTVYLQMNSLKPEDTAVSYCATVGYRHRGWTSGYWGQGTQVTVSS | high polyreactivity
QVQLVESVVGLVQAGGSLRLSCASSGSTFGANAMGRYRQAPGKEREFLAAISRSGVRTYYADSVKGRFTISRDNAKKTVYLQMNSLKPEDTAVYYCAADGYWWTYTRYDYWGQGTQVTVSS | low polyreactivity
QVQLVESWGGLFQAGGSLRLRCAASGRKFYYYAMVFYIQAPGKERELVAAITGRGGRTYYADSVKGRFTISRDNAKNTVYLQINSLKPDDTAVYYCAVRAGSAGYPKYDYWGQGTQVTLSS | high polyreactivity
QVQLVESWGGLVQAGGRLRLSCAASGNTFWDNAMRWYRQAPGKERELVAAIRWSTVSTHYADSVKGRFTISRDNAKNTVYLQMNSLKPEDTAVYDCAATAYYYYRDKYYGYDYWGQGTHVTVSS | low polyreactivity
QVQLVESWGGLVQAGGSLRISCAASGFIIDGNAMGWYRQAPGKERELLAAISGDGGSYYADSVKGRFTISRDNAKNSVYLQRNSLKPEDTAVYDCAAEQTQLYSFGWDEYWGQGTQVTVSS | low polyreactivity
QVQLVESWGGLVQAGGSLRISCAASGRTFGSYVMGWYRQAPGKERELVAAISSRGTRTYYADSVKGRFTISRDNAKNTVYLQMNSLKPEDTAVYYCNAKYGQYPPRYEYWGQGTQVTVSS | high polyreactivity
QVQLVESWGGLVQAGGSLRISCAASGRTFVRNALGWYRHAPGKEREMVAGITRSGGSTYYADSVKGRFTISRDNAKNTVYLQMNSLKPEDTAVYYCATQYRYYNHFVTPFTRYGYWGQGTQLTVSS | high polyreactivity
QVQLVESWGGLVQAGGSLRLICAASRGTFRVYAMGWYRQAPVKERELVAAITWRGGRTYYADSVKGRFTISRDNAKNTVYLQMNSLKPEDTAVYYCAADRYGDLYDYWGQGTQVTVSS | high polyreactivity
QVQLVESWGGLVQAGGSLRLSCAASGFTFFYYDMGWYRQAPGKERQLVAAITWRGGRTYYADSVKGRFTISRDNAKNTVYLQMNSLKPEDTAVYYCNAYWGYAKVGQFDYWGQGTQVTVSS | high polyreactivity

Sequence | polyreactivity (PSR sort gate)
QVQLVESWGGLVQAGGSLRLSCAASGFTFTSYAMGCYRQAPGKEREFVAGITKGGGNTYYSDSVKGRFTISRDNAKNTVYLHMNSLKPEDTEVYYCAADRSSFYLSHGTVDCYDYWGQATQVTVSS | low polyreactivity
QVQLVESWGGLVQAGGSLRLSCAASGIFYPMGWYTQAPGKERELVAAISSVGSTKYADSVKGRFTISRDNAKNTVYFQINSLKPEDTAVYYSNADVTRASSRYNSWGQGTQVTVSS | low polyreactivity
QVQLVESWGGLVQAGGSLRLSCAASGITFSSNAMGWSRQAPGKERELVAAINSGDSTNYADSVKGRFTISRDNAKNTVYLQMNSLKPEDTAVYDCAKRYRRRFNYWGQGTQVTVSS | high polyreactivity
QVQLVESWGGLVQAGGSLRLSCAASGLIIYTYAMGWYRQAPGKERELVADINRSDGSTYYADSVKGRFTISRDNAKNTVYLQMNSLKPEDTAVYYCAVVGPYYSRFGGRYYYWGQGTQVTVSS | low polyreactivity
QVQLVESWGGLVQAGGSLRLSCAASGRIFGYYAMGWSRQAPGKERELVAVISSGGSTYADSVKGRFTISRDNAKNTVYLQMNSLKPEDTAFYYCAARNYWSSYRTYRSRYDYWGQGTQVTVSS | high polyreactivity
QVQLVESWGGLVQAGGSLRLSCAASGRIFKTYAMGWYRQAPGNEREFFAAITSSGGSTYYADSVKGRFTISRDHAKNTVYLQKNSLNPEDTAVYYCNAGSLHRRYYYEGDYWGQGTQVTVSS | high polyreactivity
QVQLVESWGGLVQAGGSLRLSCAASGRIFKYNAMGWYRQAPGKERELVAAISGGGSTNYADSVKGRFTISRDNAKNTVYLQMNSLKPEDTAVYYCAASDPFEASQYKYDYWGQGTQVTVSS | low polyreactivity
QVQLVESWGGLVQAGGSLRLSCAASGRIFWAYAMGWYRHAPGKERELVAGITFTGGRTYYADSVKGRFTISRDNAKNTVYLQMNSLKPEDTAVYYCAAAGLDVGRKDRDGYWGQGTQVTVSS | low polyreactivity
QVQLVESWGGLVQAGGSLRLSCAASGRTFGKYAMGWYRQAPGKERELVASITFSSGSTYYADSVKGRFTISRDNAKNTVYLQMNSLKPEDTAVYYCAKRGWGIYDYWGQGTQVTVSS | low polyreactivity
QVQLVESWGGLVQAGGSLRLSCAASGRTLGYNAMGWYRQAPGKERELVATISYNGGRTYYADSVKGRFTISRDNAKNTVYLQMNSLKPEDTAVYYCNTRYRWIRRSLFDYWGQGTQVTVSS | high polyreactivity
QVQLVESWGGLVQAGGSLRLSCAASGSTFDRYAMGWYRQAPGKERELVAAISGSAGRTYYADSVKGRFTISRENAKNTVYLQMNTLKPEDTAVYFCAAVQIVSGNYDYYWGQGTQVTVSS | low polyreactivity
QVQLVESWGGLVQAGGSLRLSCAASGSTFDYNAMGWYRQAPGKERELVAAITSTGGNTYYADSVKGRFTISRDNAKNTVYLQMISMKPEDTAVYYCNKDVARYPYGKFDYWGQGTQVTVSS | low polyreactivity
QVQLVESWGGLVQAGGSLRLSCAASGSTFGKYFMGWYRQAHGKERELVAAISLSGGSTYYADSVKGRFTISRDKAKNTVYLQMNSLKPEDTAVYYCATVGYGYDYWGQGNQVTVSS | high polyreactivity
QVQLVESWGGLVQAGGSLRLSCAASGSTFTTNAMGWYRQAPGKERELVATMSGGGSTYYADSVKGSFTISRDNAKHTVYLQTNSLKPEDTAVYYCAKPTYRFYWGDFDYWGQGTQVTLSS | low polyreactivity
QVQLVESWGGLVQAGGSLRLSCAASGYTFSAYAMGWYRQAPGKERELVAAISWSGASTSYADSVKGRFTISRDNAKNTVYLQMNSLKPEDTAVYYCAARRLHYQFKYYSWGQGTQVTVSS | high polyreactivity
QVQLVESWGGLVQAGGSLRLSCAASVSTFYNYAMGWYRQAHGKERELVAAISKSGGSTYYADSVKGRFTISRDNAKNTVYLQMNSLNPEDTAVYYCAARGVYRTRSGMGYWGQGTQVTVSS | high polyreactivity
QVQLVESWGGLVQAGGSLRLSCAAYGIIFKYYAMGWYRQAPGKERELVAVITSNGARTYYADSVKGRFTISRDNAKNTVYLQMNSLKPEDTAVYYCNAYRLSVSVGYDYCGQGTQVTVSS | high polyreactivity
QVQLVESWGGLVQAGGSLRLSCSASGRTLRGYAMGWYRQAPGKERELVAAISKGGGSTFYADSVKGRFTISRDNAKNTVYLLMISLKPEDTAVYYCAARARYTRRGRHYDYWGQGTQVTVSS | high polyreactivity
QVQLVESWGGLVQAGGSLRLSSAASGFTFVTYGMGWYRQAPGKERELVARISSSSTNYADSVKGRFTISRDNAKNTVYLQMKSLKPEDTAVYYCAAVHYRWWYRSAYDYWGQGTQVTVSS | low polyreactivity
QVQLVESWGGLVQAGGSLRLSSAASGSIFYHYAMGWYRQAPGKERELVAAISWRGASTYYADSVKGRFTISRDNAKNTVYLQMNSLKPEDTAVYYCARLSSSHPLYRDDYWGQGTQVTLSS | high polyreactivity
QVQLVESWGGLVQAGGSRRLSCDASGRTFVTNAMGWYRQARGKERELVAAISGTGGSTYYADSVKGRFTISRDNAKNTVFLHMNRLKPEDTAVYSWAADTYIYGLEYDYWGQGTQVTVSS | low polyreactivity
